The target of test [1] is T1, FcγRIIB (UniProt P31994 43-217, limits assumed).
T1 construct: also called CD32B
T1 sequence (looked up): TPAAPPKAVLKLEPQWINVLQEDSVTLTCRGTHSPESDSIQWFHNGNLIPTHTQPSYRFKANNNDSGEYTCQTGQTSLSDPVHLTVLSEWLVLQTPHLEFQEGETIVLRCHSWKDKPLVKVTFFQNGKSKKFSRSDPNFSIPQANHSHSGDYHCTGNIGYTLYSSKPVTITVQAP
Description: ELISA.

Test [2] addresses T2, FcγRIIIA (UniProt P08637 17-208, limits assumed).
T2 construct: also called CD16A
The test can be described thus: ELISA.

For test [3], the target named is T2, FcγRIIIA. The test can be described thus: ELISA. This is another data set of the same source.
Test [4] addresses T3, FcγRIIB-Fc fusion protein, soluble dimeric: extracellular domain of FcγRIIB fused to the hinge-CH2-CH3 domain … (human, UniProt P31994 43-217, limits assumed).
T3 construct: extracellular domain; also called FcRIIB-Fc; FcR2B; not shown: human IgG2 hinge-CH2-CH3
T3 sequence (looked up): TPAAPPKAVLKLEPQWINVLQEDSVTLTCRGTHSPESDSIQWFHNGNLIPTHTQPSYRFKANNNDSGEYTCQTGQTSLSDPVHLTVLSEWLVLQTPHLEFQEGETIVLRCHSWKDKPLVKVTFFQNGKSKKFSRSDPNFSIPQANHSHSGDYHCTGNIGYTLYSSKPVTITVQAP
The test can be described thus: BIAcore.

Test [5] has as its target T4, soluble monomeric FcγRIIIA, the extracellular region of FcγRIIIA joined to the linker-AVITAG sequence (UniProt P08637 17-208, limits assumed).
T4 construct: extracellular domain; also called FcRIIIA; FcR3A
The test can be described thus: BIAcore.

These results are taken from patent US20080138349A1 (MacroGenics, published 2008).

T4 sequence (P08637 17-208 limits assumed): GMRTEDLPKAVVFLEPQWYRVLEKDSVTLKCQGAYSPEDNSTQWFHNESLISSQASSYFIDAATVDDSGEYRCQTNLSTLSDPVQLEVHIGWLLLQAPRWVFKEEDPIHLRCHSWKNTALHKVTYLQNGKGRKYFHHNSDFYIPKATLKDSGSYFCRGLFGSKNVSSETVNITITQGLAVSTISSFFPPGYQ
T2 sequence (P08637 17-208 limits assumed): as above

B1: ch4-4-20 T215P, K274N, A287G, K334N, L365V, P396L (antibody)
chain: PEPKSCDKTHTCPPCPAPELLGGPSVFLFPPKPKDTLMISRTPEVTCVVVDVSHEDPEVNFNWYVDGVEVHNGKTKPREEQYNSTYRVVSVLTVLHQDWLNGKEYKCKVSNKALPAPIENTISKAKGQPREPQVYTLPPSRDELTKNQVSVTCLVKGFYPSDIAVEWESNGQPENNYKTTPLVLDSDGSFFLYSKLTVDKSRWQQGNVFSCSVMHEALHNHYTQKSLSLSPGK
Turning to B1, the “ELISA binding increase vs wt” value in test [1] amounted to 4 x.

B2: ch4-4-20 E293V, Q295E, A327T (antibody)
chain: EPKSCDKTHTCPPCPAPELLGGPSVFLFPPKPKDTLMISRTPEVTCVVVDVSHEDPEVKFNWYVDGVEVHNAKTKPRVEEYNSTYRVVSVLTVLHQDWLNGKEYKCKVSNKTLPAPIEKTISKAKGQPREPQVYTLPPSREEMTKNQVSLTCLVKGFYPSDIAVEWESNGQPENNYKTTPPVLDSDGSFFLYSKLTVDKSRWQQGNVFSCSVMHEALHNHYTQKSLSLSPGK
As to B2, the “ELISA IIIA binding vs wt” value in test [2] turned out to be 1.4 X. Also, the “ELISA binding increase vs wt” value in test [3] is 0.4 x. Further, the Kd in test [4] stood at 86 nM.

B3: ch4-4-20 Y319F, P352L, P396L (antibody)
chain: EPKSCDKTHTCPPCPAPELLGGPSVFLFPPKPKDTLMISRTPEVTCVVVDVSHEDPEVKFNWYVDGVEVHNAKTKPREEQYNSTYRVVSVLTVLHQDWLNGKEFKCKVSNKALPAPIEKTISKAKGQPREPQVYTLLPSREEMTKNQVSLTCLVKGFYPSDIAVEWESNGQPENNYKTTPLVLDSDGSFFLYSKLTVDKSRWQQGNVFSCSVMHEALHNHYTQKSLSLSPGK
For B3, the “ELISA IIIA binding vs wt” value in test [2] came to 3.5 X. This molecule also returned a dissociation constant (Kd) in test [5] of 125 nM.

B4: ch4-4-20 V348M, K334N, F275I, Y202M, K147T (antibody)
chain: ASTKGPSVFPLAPSSKSTSGGTAALGCLVTDYFPEPVTVSWNSGALTSGVHTFPAVLQSSGLYSLSSVVTVPSSSLGTQTYICNMNHKPSNTKVDKKVEPKSCDKTHTCPPCPAPELLGGPSVFLFPPKPKDTLMISRTPEVTCVVVDVSHEDPEVKINWYVDGVEVHNAKTKPREEQYNSTYRVVSVLTVLHQDWLNGKEYKCKVSNKALPAPIENTISKAKGQPREPQMYTLPPSRDELTKNQVSLTCLVKGFYPSDIAVEWESNGQPENNYKTTPPVLDSDGSFFLYSKLTVDKSRWQQGNVFSCSVMHEALHNHYTQKSLSLSPGK
Consider B4, for which the “ELISA binding increase vs wt” value in test [1] is 0.75 x; in test [3], 0.5 x.

B5: ch4-4-20 V379M (antibody)
chain 1: not shown
chain 2: DVVMTQTPLSLPVSLGDQASISCRSSQSLVHSNGNTYLRWYLQKPGQSPKVLIYKVSNRFSGVPDRFSGSGSGTDFTLKISRVEAEDLGVYFCSQSTHVPWTFGGGTKLEIKRTVAAPSVFIFPPSDEQLKSGTASVVCLLNNFYPREAKVQWKVDNALQSGNSQESVTEQDSKDSTYSLSSTLTLSKADYEKHKVYACEVTHQGLSSPVTKSFNRGEC
Turning to B5, the “ELISA IIIA binding vs wt” value in test [2] is 2 X. Further, the “ELISA binding increase vs wt” value in test [3] was 2 x. In test [5], the Kd is 160 nM and the koff is 0.167 s⁻¹. In test [4], this molecule yielded a Kd of 70 nM and a koff of 0.1 s⁻¹.

B6: ch4-4-20 F243I, V379L, G420V (antibody)
chain 1: EVKLDETGGGLVQPGRPMKLSCVASGFTFSDYWMNWVRQSPEKGLEWVAQIRNKPYNYETYYSDSVKGRFTISRDDSKSSVYLQMNNLRVEDMGIYYCTGSYYGMDYWGQGTSVTVSSASTKGPSVFPLAPSSKSTSGGTAALGCLVKDYFPEPVTVSWNSGALTSGVHTFPAVLQSSGLYSLSSVVTVPSSSLGTQTYICNVNHKPSNTKVDKKVEPKSCDKTHTCPPCPAPELLGGPSVFLIPPKPKDTLMISRTPEVTCVVVDVSHEDPEVKFNWYVDGVEVHNAKTKPREEQYNSTYRVVSVLTVLHQDWLNGKEYKCKVSNKALPAPIEKTISKAKGQPREPQVYTLPPSRDELTKNQVSLTCLVKGFYPSDIALEWESNGQPENNYKTTPPVLDSDGSFFLYSKLTVDKSRWQQVNVFSCSVMHEALHNHYTQKSLSLSPGK
chain 2: DVVMTQTPLSLPVSLGDQASISCRSSQSLVHSNGNTYLRWYLQKPGQSPKVLIYKVSNRFSGVPDRFSGSGSGTDFTLKISRVEAEDLGVYFCSQSTHVPWTFGGGTKLEIKRTVAAPSVFIFPPSDEQLKSGTASVVCLLNNFYPREAKVQWKVDNALQSGNSQESVTEQDSKDSTYSLSSTLTLSKADYEKHKVYACEVTHQGLSSPVTKSFNRGEC
On to B6, for which the “ELISA binding increase vs wt” value in test [1] was 3.5 x. In test [4], this molecule yielded a Kd of 93.4 nM and a koff of 0.101 s⁻¹.

B7: ch4-4-20 F243I, V379L (antibody)
chain 1: not shown
chain 2: DVVMTQTPLSLPVSLGDQASISCRSSQSLVHSNGNTYLRWYLQKPGQSPKVLIYKVSNRFSGVPDRFSGSGSGTDFTLKISRVEAEDLGVYFCSQSTHVPWTFGGGTKLEIKRTVAAPSVFIFPPSDEQLKSGTASVVCLLNNFYPREAKVQWKVDNALQSGNSQESVTEQDSKDSTYSLSSTLTLSKADYEKHKVYACEVTHQGLSSPVTKSFNRGEC
Turning to B7, in test [5], the Kd was found to be 99.7 nM and the koff stood at 0.105 s⁻¹. Moreover, in test [4], the dissociation constant (Kd) came to 120 nM and the koff worked out at 0.113 s⁻¹.

B8: ch4-4-20 K334E, T359N, T366S (antibody)
chain 1: EVKLDETGGGLVQPGRPMKLSCVASGFTFSDYWMNWVRQSPEKGLEWVAQIRNKPYNYETYYSDSVKGRFTISRDDSKSSVYLQMNNLRVEDMGIYYCTGSYYGMDYWGQGTSVTVSSASTKGPSVFPLAPSSKSTSGGTAALGCLVKDYFPEPVTVSWNSGALTSGVHTFPAVLQSSGLYSLSSVVTVPSSSLGTQTYICNVNHKPSNTKVDKKVEPKSCDKTHTCPPCPAPELLGGPSVFLFPPKPKDTLMISRTPEVTCVVVDVSHEDPEVKFNWYVDGVEVHNAKTKPREEQYNSTYRVVSVLTVLHQDWLNGKEYKCKVSNKALPAPIEETISKAKGQPREPQVYTLPPSRDELNKNQVSLSCLVKGFYPSDIAVEWESNGQPENNYKTTPPVLDSDGSFFLYSKLTVDKSRWQQGNVFSCSVMHEALHNHYTQKSLSLSPGK
chain 2: DVVMTQTPLSLPVSLGDQASISCRSSQSLVHSNGNTYLRWYLQKPGQSPKVLIYKVSNRFSGVPDRFSGSGSGTDFTLKISRVEAEDLGVYFCSQSTHVPWTFGGGTKLEIKRTVAAPSVFIFPPSDEQLKSGTASVVCLLNNFYPREAKVQWKVDNALQSGNSQESVTEQDSKDSTYSLSSTLTLSKADYEKHKVYACEVTHQGLSSPVTKSFNRGEC
Regarding B8, the “ELISA IIIA binding vs wt” value in test [2] was determined as 1.5 X. The “ELISA binding increase vs wt” value in test [3] was determined as 1.5 x. Moreover, in test [5], the Kd came to 55.2 nM and the dissociation rate constant (koff) is 0.128 s⁻¹. Also, in test [4], binding was characterised by a dissociation constant (Kd) of 72 nM and the koff stood at 0.11 s⁻¹.

B9: ch4-4-20 P247L, N421K (antibody)
chain 1: not shown
chain 2: DVVMTQTPLSLPVSLGDQASISCRSSQSLVHSNGNTYLRWYLQKPGQSPKVLIYKVSNRFSGVPDRFSGSGSGTDFTLKISRVEAEDLGVYFCSQSTHVPWTFGGGTKLEIKRTVAAPSVFIFPPSDEQLKSGTASVVCLLNNFYPREAKVQWKVDNALQSGNSQESVTEQDSKDSTYSLSSTLTLSKADYEKHKVYACEVTHQGLSSPVTKSFNRGEC
On to B9, for which the “ELISA IIIA binding vs wt” value in test [2] worked out at 3 X. In test [3], the “ELISA binding increase vs wt” value was 3 x. Moreover, the results for the Kd in test [5] and in test [4] were 62 nM and 66 nM, respectively. Besides, the koff in test [5] came to 0.108 s⁻¹; in test [4], 0.065 s⁻¹.

B10: ch4-4-20 K317N, F423-deleted (antibody)
chain: EPKSCDKTHTCPPCPAPELLGGPSVFLFPPKPKDTLMISRTPEVTCVVVDVSHEDPEVKFNWYVDGVEVHNAKTKPREEQYNSTYRVVSVLTVLHQDWLNGNEYKCKVSNKALPAPIEKTISKAKGQPREPQVYTLPPSREEMTKNQVSLTCLVKGFYPSDIAVEWESNGQPENNYKTTPPVLDSDGSFFLYSKLTVDKSRWQQGNVSCSVMHEALHNHYTQKSLSLSPGK
In the case of B10, in test [1], the “ELISA binding increase vs wt” value was 7 x.
